According to US20240132578A1:

Experiments:
Assay in all cases: cell-based or functional assay
[1] = target: HIV-1 Env of isolate MGRM-C-020 (subtype C), on pseudovirus (HIV-1)
[2] = target: HIV-1 Env of isolate MGRM-G-001 (subtype G) (HIV-1)
[3] = target: HIV-1 Env of isolate MGRM-AE-001 (pseudovirus) (HIV-1)
[4] = target: HIV-1 Env of isolate MGRM-C-028 (subtype C), on pseudovirus (HIV-1)
[5] = target: HIV-1 Env of isolate MGRM-G-004 (subtype G) (HIV-1)
[6] = target: HIV-1 Env of isolate MG RM-A-006 (pseudovirus) (HIV-1)
[7] = target: HIV-1 Env of pseudovirus isolate 6535.3 (clade B) (HIV-1)
[8] = target: HIV-1 Env of isolate MGRM-C-024 (subtype C), on pseudovirus (HIV-1)
[9] = target: HIV-1 Env of isolate MGRM-G-014 (subtype G) (HIV-1)
[10] = target: HIV-1 Env of pseudovirus MGRM-F1-013 (HIV-1)
[11] = target: HIV-1 Env of pseudovirus MGRM-D-021 (HIV-1)
[12] = target: HIV-1 Env of pseudovirus MGRM-F1-017 (HIV-1)
[13] = target: HIV-1 Env of pseudovirus MGRM-D-014 (HIV-1)
[14] = target: HIV-1 envelope glycoprotein (Env) of isolate MG RM-AG-012 (HIV-1)
[15] = target: HIV-1 Env of pseudovirus MGRM-D-028 (HIV-1)
[16] = target: HIV-1 Env of isolate MGRM-D-008 (clade D pseudovirus) (HIV-1)
[17] = target: HIV-1 envelope glycoprotein (Env) of isolate MGRM-C-017 (HIV-1)
[18] = target: HIV-1 Env of isolate TRO.11 (Acute), clade B (HIV-1)
[19] = target: HIV-1 MGRM-C-028 Env (HIV-1)
[20] = target: HIV-1 envelope glycoprotein (Env) of isolate LAVIC_18 (HIV-1)
[21] = target: HIV-1 envelope glycoprotein (Env) of isolate MGRM-C-023 (HIV-1)
[22] = target: HIV-1 Env of isolate APV_6, clade B (HIV-1)
[23] = target: HIV-1 JR-CSF Env S334A (HIV-1 isolate JR-CSF) (UniProt P20871)
[24] = target: HIV-1 JR-CSF Env F468A (HIV-1 (isolate JR-CSF)) (UniProt P20871)
[25] = target: HIV-1 envelope glycoprotein (Env) of isolate MGRM-Chronic-B-004, on pseudovirus (HIV-1)
[26] = target: HIV-1 Env of pseudovirus isolate MGRM-C-019 (clade C) (HIV-1)
[27] = target: HIV-1 Env of isolate MGRM-D-014 (pseudovirus) (HIV-1)
[28] = target: HIV-1 Env of isolate 92UG005 (pseudovirus) (HIV-1)
[29] = target: HIV-1 Env of isolate MGRM-AG-011 (subtype AG) (HIV-1)
[30] = target: HIV-1 Env of isolate MGRM-A-007 (subtype A) (HIV-1)
[31] = target: HIV-1 Env of isolate JRFL (HIV-1)
[32] = target: HIV-1 Env of isolate MGRM-F1-023 (HIV-1)
[33] = target: HIV-1 Env of isolate MGRM-F1-021 (HIV-1)
[34] = target: HIV-1 Env of isolate MGRM-A-009 (subtype A) (HIV-1)
[35] = target: HIV-1 Env of isolate MGRM-Chronic-B-004 (HIV-1)
[36] = target: HIV-1 Env of isolate 92RW008 (pseudovirus) (HIV-1)
[37] = target: HIV-1 Env of isolate MGRM-AE-001 (subtype AE) (HIV-1)
[38] = target: HIV-1 Env of isolate MGRM-AE-006 (subtype AE) (HIV-1)

PGT-143 (4980_N08) (antibody), sequence (VH): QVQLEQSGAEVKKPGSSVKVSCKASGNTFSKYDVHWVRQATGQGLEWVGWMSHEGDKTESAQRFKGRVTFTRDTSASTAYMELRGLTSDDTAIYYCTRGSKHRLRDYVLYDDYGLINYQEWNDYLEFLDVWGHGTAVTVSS
PGT-143 (4980_N08) (antibody), sequence (VL): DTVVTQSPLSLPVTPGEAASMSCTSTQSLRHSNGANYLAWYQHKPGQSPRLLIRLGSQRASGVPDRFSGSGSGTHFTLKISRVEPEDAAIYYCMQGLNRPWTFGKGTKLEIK
4970_K22 (PGT-144) (antibody), sequence (VH): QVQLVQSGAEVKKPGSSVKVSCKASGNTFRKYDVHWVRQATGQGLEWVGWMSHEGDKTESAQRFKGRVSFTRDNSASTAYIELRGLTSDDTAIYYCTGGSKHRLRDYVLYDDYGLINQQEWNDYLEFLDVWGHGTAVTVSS
4970_K22 (PGT-144) (antibody), sequence (VL): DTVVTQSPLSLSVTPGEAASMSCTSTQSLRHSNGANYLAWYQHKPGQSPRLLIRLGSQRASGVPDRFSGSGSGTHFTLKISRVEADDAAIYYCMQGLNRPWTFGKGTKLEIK

Row | Substance | IC50, single-round pseudovirus neutralization [1] | IC50 (µg/mL), pseudovirus neutralization [2] | IC50 (µg/mL), single-round pseudovirus neutralization [3] | IC50, single-round pseudovirus neutralization [4] | IC50 (µg/mL), pseudovirus neutralization [5] | IC50 (µg/mL), single-round pseudovirus neutralization [6] | IC50, pseudovirus neutralization [7] | IC50, single-round pseudovirus neutralization [8] | IC50 (µg/mL), pseudovirus neutralization [9] | IC50, pseudovirus neutralization [10] | IC50, pseudovirus neutralization [11] | IC50, pseudovirus neutralization [12] | IC50, pseudovirus neutralization [13] | IC50 [14] | IC50, pseudovirus neutralization [15] | IC50, pseudovirus neutralization [25] | also measured
1 | 4980_N08 (PGT-143) (antibody) | 0.797 µg/mL | 0.423 µg/mL | > 50 µg/mL | 12.4 µg/mL | > 50 µg/mL | > 50 µg/mL | > 50 µg/mL | 0.05 µg/mL | 0.107 µg/mL | – | – | – | – | – | – | – | –
2 | VRC01 (antibody) | 0.396 µg/mL | 0.0371 µg/mL | 0.167 µg/mL | 0.319 µg/mL | > 50 µg/mL | 0.521 µg/mL | 1.75 µg/mL | 3.4 µg/mL | 0.056 µg/mL | 0.17 µg/mL | 33.4 µg/mL | 1.08 µg/mL | 0.332 µg/mL | 0.031 µg/mL | 0.377 µg/mL | – | –
3 | 4970_K22 (PGT-144) (antibody) | 1.29 µg/mL | > 50 µg/mL | > 50 µg/mL | > 50 µg/mL | > 50 µg/mL | > 50 µg/mL | > 50 µg/mL | 2.06 µg/mL | 0.562 µg/mL | – | – | – | – | – | – | – | –
4 | PGT-143 (4980_N08) (antibody) | – | – | – | – | – | – | – | – | – | 0.013 µg/mL | > 50 µg/mL | 26.3 µg/mL | 0.009 µg/mL | > 50 µg/mL | > 50 µg/mL | – | –
5 | 1496_C09 (PG9) (TCN-109) (antibody) | – | 0.166 µg/mL | – | – | – | – | – | – | 16.5 µg/mL | – | – | – | – | – | – | – | IC50, pseudovirus neutralization [16]: 6.86 µg/mL; IC50 (µg/mL), pseudovirus neutralization [3]: 20.6 µg/mL; IC50 (µg/ml), pseudovirus neutralization [17]: 1.52 µg/mL; IC50 (µg/ml), pseudovirus neutralization [18]: 5.43 µg/mL; IC50, pseudovirus neutralization [19]: 0.121 µg/mL; IC50 (µg/ml), pseudovirus neutralization [20]: 0.1 µg/mL; IC50 (µg/ml), pseudovirus neutralization [21]: 0.51 µg/mL; IC50 (µg/ml), pseudovirus neutralization [22]: 0.12 µg/mL
6 | 5145_B14 (PGT-127) (antibody) | – | – | – | – | – | – | – | – | – | – | – | – | – | – | – | 0.018 µg/mL | Fold IC50 increase relative to wild-type [23]: > 500 fold; Fold IC50 increase relative to wild-type (pseudovirus neutralization) [24]: 3 fold
7 | PGT-144 (4970_K22) (antibody) | – | – | – | – | – | – | – | – | – | 0.509 µg/mL | > 50 µg/mL | > 50 µg/mL | 0.113 µg/mL | > 50 µg/mL | > 50 µg/mL | – | –
8 | 5345_I01 (PGT-137) (antibody) | – | – | – | – | – | – | – | – | – | – | – | – | – | – | – | – | IC50, pseudovirus neutralization [26]: > 50 µg/mL; IC50 (µg/mL), pseudovirus neutralization [27]: > 50 µg/mL; IC50 (µg/mL), pseudovirus neutralization [28]: > 50 µg/mL; IC50, pseudovirus neutralization [29]: > 50 µg/mL; IC50, pseudovirus neutralization [30]: > 50 µg/mL; IC50 (µg/mL), pseudovirus neutralization [31]: > 50 µg/mL; IC50 (µg/mL), pseudovirus neutralization [32]: > 50 µg/mL; IC50 (µg/mL), pseudovirus neutralization [33]: > 50 µg/mL; IC50, pseudovirus neutralization [34]: > 50 µg/mL; IC50 (µg/mL), pseudovirus neutralization [35]: > 50 µg/mL; IC50 (µg/mL), pseudovirus neutralization [36]: 0.148 µg/mL; IC50, pseudovirus neutralization [37]: > 50 µg/mL; IC50, pseudovirus neutralization [38]: > 50 µg/mL
9 | 4838_L06 (PGT-121) (antibody) | – | – | – | – | – | – | – | – | – | – | – | – | – | – | – | 0.009 µg/mL | –
10 | 4877_D15 (PGT-122) (antibody) | – | – | – | – | – | – | – | – | – | – | – | – | – | – | – | 0.008 µg/mL | IC50, pseudovirus neutralization [19]: 2.06 µg/mL
